Here are results for one molecule from US20220298229A1 (ICHOR BIOLOGICS, published 2022).

In this experiment the target is T1, Vesicular Stomatitis Virus Glycoprotein (VSV-G) (Vesicular Stomatitis Virus, UniProt P03522 17-511).
T1 construct: whole, on cells
Put plainly: flow cytometry, VSV-G-transfected 293T cells (FIG. 4C).

T1 sequence (P03522 17-511): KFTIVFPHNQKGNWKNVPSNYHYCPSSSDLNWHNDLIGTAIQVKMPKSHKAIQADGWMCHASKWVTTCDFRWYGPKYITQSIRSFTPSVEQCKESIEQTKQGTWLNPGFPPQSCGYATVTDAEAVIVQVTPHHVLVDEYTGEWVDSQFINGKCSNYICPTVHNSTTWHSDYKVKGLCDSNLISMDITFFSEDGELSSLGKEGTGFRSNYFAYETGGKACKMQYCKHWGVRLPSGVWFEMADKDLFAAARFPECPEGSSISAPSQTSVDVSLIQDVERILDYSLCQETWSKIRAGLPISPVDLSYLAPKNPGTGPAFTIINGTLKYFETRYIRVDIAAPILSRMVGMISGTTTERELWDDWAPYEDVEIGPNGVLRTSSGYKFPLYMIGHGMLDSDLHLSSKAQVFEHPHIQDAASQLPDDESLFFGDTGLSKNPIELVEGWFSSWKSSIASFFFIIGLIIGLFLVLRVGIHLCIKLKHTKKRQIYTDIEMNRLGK

B1: monoclonal antibody MIB22 (antibody, V domains shown)
VH: EVQLVQSGAELKKPGSSVKVSCKASGGTFVGYGVSWVRQVPGHGPEWMGGFSPISNTANYAERFQGRVTMIVDGSTSTAYMELRSLRSEDTAIYYCARSCDFWNAYYNNWFDPWGQGTLVTVSS
VL: AQSALTQPASVSGSPGQSITISCTGTSSDFADYNSVSWYQQHPGKAPKLLIFDVNDRPSGVSHRFSGSKSGNTASLTISGLQAEDESDYYCTSYTICNSYVFGTGTKVTVLG
notes: also called MIB22 IgG; first antibody
Take B1: the binding result is on record as “no binding (tested: 1 to 15 µg/ml)”.
